Data: the nanobody polyreactivity screen of Harvey et al. (2022)

Assay: yeast display, Sf9 membrane polyspecificity reagent, FACS + sequencing; frameworks hold sequencing errors
Procedure, shortened: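 Synthetic nanobody libraries on Saccharomyces cerevisiae BJ5465 were galactose-induced for 36–48 hours, stained 1 hour at 4 °C with 10% biotinylated, detergent-solubilized Sf9 membrane reagent and enriched on streptavidin microbeads. FACS then separated cells into low and high (top ~1%) gates by anti-HA (expression) and streptavidin (reagent binding) fluorescence. Genes were colony-PCR amplified, MiSeq 2 × 250 sequenced and CDR-length filtered. A clone's polyreactivity label is that of its gate of origin.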

QVQHVESGGGLVQAGGSLRLSCAASGSTLSSYAMGWSRQAPGKERELVAAINSSGGRTYYADSVKGRFTISRDNAKNTVYLKMNSVKPEDTEVYYCAATRGRYREDEDYWGQGTQVTVSS
polyreactivity (PSR sort gate): high polyreactivity

QVQLVESGGGLVQAGGSLRLSCAASGSTFAYYAMGWYRQAPGKERELVAAITWSGGRTYYADSVKGRFTISRDNAKNTVYLQMNSLKPEDTAVYYCAAGQQHSLFRVPQYRNRAFYYWGQGTQVTVSS
polyreactivity (PSR sort gate): high polyreactivity

QDQLVESGGGLVQEGGSLRLSCAAYGSIYRYAMGWNRPAPGKERELVAAINFNGGRTYYADSVNGRFTISRDNAKNTVYLQMTSLKPEDTAVYYCAARISVYSTLPNDFDYWGQGTQVTVSS
polyreactivity (PSR sort gate): high polyreactivity

QFQLVESGGGLVQAGGSLRLSCAASGSIYRLNTMGWYRQAPGKERELVAAMSRRGGSTYYADSVKGRFTISRDNAKNTVYIQMNSLKPEDTAVYYCSADVTSFRHAPGYEYWGQGTQVTVSS
polyreactivity (PSR sort gate): high polyreactivity

QVQLVESGGGLVQAGGSLRLSCAASGRIFTNAMGWYTQAPGKQRELVAAISGGSNTYYADSVKGRFTISRDNANNTVYLQMNSLKPEDTAVYYCNTDDQWWDGGYDYWGQGTQVTVSS
polyreactivity (PSR sort gate): low polyreactivity

QVQLVESGGGLVQAGGSLRLSCAASGRIFRRNTMGWYRQAPGIERELVAAITSSGGSTYADSVKGRFTISRDNAKNTVYLQMNSLKPEDTAVYYCATYVAYHRGYRTYDHWGQGTQVTVSS
polyreactivity (PSR sort gate): low polyreactivity

QVQLVESGGGLVQAGGSLRLSCAASGSTFTPYAMGWYRQAPGKERELVAAINSRGGSTYYADSVKGRFTISRDNAKNTVYLQMHSLKPEDSAVYYCAARTRRRTSAYEYWGQGTQVTVSS
polyreactivity (PSR sort gate): high polyreactivity

QVQLVESGGGLVQAGGSLRLSCAASGSTFPYYAMGWYRQAPGKERELVARISYRGGRTYYADSVKGRFTISRDNAKNTVYLQMNSLKPEDTAVYYCAADRWVYYHSTRYDYWGQGTQVTVSS
polyreactivity (PSR sort gate): high polyreactivity

QVQLVDSGGGLVQAGGSLRLSCSASGYIFYANTMGWYRQAPGKEREFVATISWIGSTYYADSVKGRFTISRDNAKNTVYLQMNSLKPEDTAVYYCNARYTYRRYGRYDYWGQGTQVTVSS
polyreactivity (PSR sort gate): high polyreactivity

QVQLVESGGGLVQAGGSLRLSCAASGSIFVYYAMGWYRQAPGNERELVAAINNGGSTTYADSVKGRFTISRDNAKNTVYLQMNSLKPEDTAVYYCAADLEPRTNAPGLPTPDGYYWGQGTQVTVSS
polyreactivity (PSR sort gate): low polyreactivity

QVQLVESGGGLVQAGGSLRLSCAASGSTFWFYAMGWYRQAPGKERELVAVISNSGSTYYADSVKGRFTISRDNAKNTVYLQMNSLKPEDTAVYYCNRYYPVPYDYWGQGTQVTVSS
polyreactivity (PSR sort gate): low polyreactivity

QVHLVESGGGLVQAGGSLRLSCAASGSTFYPYSMGWYRQAPGKERELVAAISSGGSTSYADSVKGRFTISRDNAKNTVYLQMNSLKPDDTAVYYCAALYRIFSYDYWGQGTQVTVSS
polyreactivity (PSR sort gate): low polyreactivity

QVQLVETGGGIVQAGGSLRLSCAAYGRILWYYAMGWYRQAPGKERELVAAITSGGSTYYADSVKGRFTLSRDIAKNTVYLQMNSLKPEDTAVYYCNAYYTYRFNYWGQGTQVTVSS
polyreactivity (PSR sort gate): high polyreactivity

QVQLVESGGGLVQAGGSLRLSCAASGITFSLYAMGWYRQAPGKERELVAAIDWSSGSTYYADSVKGRFTISRDNAKNTVYLQMNSLKPEDTAVYYCAAEYVHHASGDFSTLYYYWGQGTQVTVSS
polyreactivity (PSR sort gate): low polyreactivity

QVQLQESGGGLVQAGGSLRLSCAASGSIYDDTYMGWYRQAPGKERELVATIDSGSTTNYADSVKGRITISRDNAKNTVYLQMNSLKPEDTGVYYCAAADSHIDYFDYWGQGTQVTVSS
polyreactivity (PSR sort gate): low polyreactivity

QVQLVESGGGLVQAGGSLRLSCAASGYIFDVNTMGWYRQAPGKERELFAAITSGGTTYYADSVKGRFTISRDNAKNTVYLQMNSLKPEDTAVYYCAARRYPFEYDYWGQGTQVTVSS
polyreactivity (PSR sort gate): high polyreactivity

QVQLVESGGGLVQAGGSLRLSCAASGGTFYYYAMGWSRQAPGKERELVAAISTSGTSTYYADSVKGRFTISRDNAKNTVYLQMNSLKPEVTAVYYCAARGLRVSSRGYYWGQGTQLTVSS
polyreactivity (PSR sort gate): high polyreactivity

QVQLVESGGGLVQAGGSLRLSCAASGSTFTINVMGWYRQAPGKERELVAAINGGGRTNYADSVKGRFTISRDNAKNTVYLQMNSLKPEDTAVYYCATRYSHNSGFDYWGQGTQVTVSS
polyreactivity (PSR sort gate): low polyreactivity

QVQLVESGGGLVQAGGSLRLSCAASGRIFSYYAMGWYRQAPGKERELVAAISWNGGSTYYADSVKGRFTISRDNAKNTVYLQMKSLKPEDTAVYYCAAESYFNNWRNRYDYCGQGTQVTVSS
polyreactivity (PSR sort gate): high polyreactivity

QVQLVESGAGLVQAGGSLRLSCAASGLIFGTDAMGLYRQAPGKESELVAAITSGGRTYYADSVKGRFTISRDNAKNTVYLQLISLKPEDTAVYYCAAEGWWNDTPYDYWGQVTQVTVSS
polyreactivity (PSR sort gate): low polyreactivity

QVQLVESGGGLVQAGGSLRLSCAASGSTFYPYAMGWYRQAPGKERELVAAINWSGGTTYYADSVKGRFTISRDNAKNTVYLQLNSLKPEDTAVYYCAADGYPPGYGYWGQGTQVTVSS
polyreactivity (PSR sort gate): low polyreactivity

QVQLVESGGGLVQAGGSLRLSCAASGSTLARYAMGWYRQAPGKERELVAAISSDGRTYYADSVKGRYTISRDNAKNTVYLQIYSLKPEDTAVYYCATLRPYAYPQYDSWGQGTQVTVSS
polyreactivity (PSR sort gate): high polyreactivity

QVQLVESGGGLVQAGGSLRLSCAASGRIFVWNTMGWYRQAPGKERELVAAITSGGSTTYADSVKGRFTISRDNAKNTVYLQMNSLKPEDTAVYYCNTELDLYHPGDDYWGQGTQVTVSS
polyreactivity (PSR sort gate): high polyreactivity

QVQLVESGGGLVQAGGSLRLSCAASGIYGYNAMGWYRQAPGKERELVAAITSSGTSTYYADSVKGRFTISRDNAKNTVYLQMNSLKPEDTAVYYCAALHSGTWTGYGYWGQGTQVTVSS
polyreactivity (PSR sort gate): low polyreactivity

QVQLVESGGGLVQAGGSLRLSCAASGIIFTYSAMGWYRQAPGKERELVAAISRRGGTTYYADSVKGRFTISRDNAKNTVYLQMNSLKPEDTAVYYCAKKWGWFPVYYWGQGTQVTVSS
polyreactivity (PSR sort gate): high polyreactivity

QVQLVESGGGLVQAGGILRLSCAASGRILPSNAMGWYRQAPGKERELVAGITSGGSTDYADSVKGRFTISRDNAKNTVYLQMNSLKQEDTAVYYCNKPFPYYPDGPNGYDYWGLGTQVTVSS
polyreactivity (PSR sort gate): low polyreactivity

QVQLVESGGGIVQAGGSLRLSCAASGRIFDRYAMGWYRQAPGTERELVAAITGSGGRTYYADSVKGRFTISRDNAKNTVYLQMNSLKPEDTAVYYCARALGQRGYVYWGQGTQVTVSS
polyreactivity (PSR sort gate): high polyreactivity

QVQHVESGGGLVQAGGSLPLSCAASGFIFYNYAQRCYTQPPGKERELVAAISSGDDTTYADSVKGRFTISRDNAKNTVYLQMNSLKPDDTAVYYCNTVRSVKQQGPYGYCGQGTQVTVSS
polyreactivity (PSR sort gate): low polyreactivity

QVQLVESGGGLVQAGGSLRLSCAASGSIFNYYDMGWYRQAPGKEREFVARITIGGSSTNYADSVKGRFTISRDNAKNTVYLQMNSLKPEDTAVYYCAASQYGIFFSQMDYWGQGTQVTVSS
polyreactivity (PSR sort gate): low polyreactivity

QVQLVDSGGGLVQAGGSLRLSCAASGRTFYDNDMGWYRQAPGKERELVARIRRGGNTKYADSVKGRFTISRDNAKNTVYLQMNSLKPEDTAVYYCNRDYGSKIYDYWGQGSQVTVSS
polyreactivity (PSR sort gate): low polyreactivity

QVQLVESGGGLVQAGGSLRLSCAASGITFRYYAMGWYRQAPGKERELVASITSGGVNTYYADSVKGRFTISRDNAKNTVYLQMNSLKPEDTAVYYCATRFSYSALGGYDYWGQGTQVTVSS
polyreactivity (PSR sort gate): low polyreactivity

QDQLVESGGGLVQAGGSLRLICAASGRILTSYAMGWYRQAPGKERELVAAISGSSASTYYADSVKGRFTISRDNAKNTVYLQMNSLKPEDTAVYYCAAYKYDYRVDTGYDYWGQGTQVTVSS
polyreactivity (PSR sort gate): low polyreactivity
